These results are taken from US20240166767A1 (SCIRHOM, published 2024).

The chains are these.
T1: dog iRhom1 full length wild type, T7-tagged (dog, UniProt A0A8I3MHT7 11-866)
T1 construct: whole, on cells; also called Dog-iR1-FL-WT-T7; expressed by MEF-DKO-Dog-iR1-FL-WT-T7 cells
T1 sequence: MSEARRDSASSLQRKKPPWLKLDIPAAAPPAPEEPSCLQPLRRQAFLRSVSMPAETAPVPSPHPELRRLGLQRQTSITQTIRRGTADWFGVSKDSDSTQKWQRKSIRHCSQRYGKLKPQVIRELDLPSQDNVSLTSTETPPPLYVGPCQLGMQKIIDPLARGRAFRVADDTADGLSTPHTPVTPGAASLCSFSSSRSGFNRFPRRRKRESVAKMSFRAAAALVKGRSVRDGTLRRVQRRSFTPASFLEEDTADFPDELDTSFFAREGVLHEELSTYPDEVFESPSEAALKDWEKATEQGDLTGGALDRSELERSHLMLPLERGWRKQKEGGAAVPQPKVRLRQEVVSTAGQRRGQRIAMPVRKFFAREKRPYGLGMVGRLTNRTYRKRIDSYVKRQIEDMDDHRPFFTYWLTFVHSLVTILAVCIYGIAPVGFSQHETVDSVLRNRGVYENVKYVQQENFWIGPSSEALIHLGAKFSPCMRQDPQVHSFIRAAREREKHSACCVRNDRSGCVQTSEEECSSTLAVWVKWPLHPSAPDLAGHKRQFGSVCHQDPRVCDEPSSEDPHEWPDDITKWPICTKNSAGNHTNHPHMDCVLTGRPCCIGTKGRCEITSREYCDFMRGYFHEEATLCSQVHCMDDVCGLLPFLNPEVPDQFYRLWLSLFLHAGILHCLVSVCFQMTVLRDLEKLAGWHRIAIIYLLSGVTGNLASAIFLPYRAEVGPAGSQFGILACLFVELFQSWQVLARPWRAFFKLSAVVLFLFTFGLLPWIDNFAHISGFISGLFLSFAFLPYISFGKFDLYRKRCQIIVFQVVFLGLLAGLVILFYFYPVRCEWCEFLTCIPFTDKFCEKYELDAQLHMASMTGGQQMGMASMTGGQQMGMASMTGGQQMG

B1: humanized antibody 16-B-07 (antibody, V domains shown)
VH: QVTLRESGPALVKPTQTLTLTCTFSGFSLSTFALGVGWIRQPPGKALEWLAHIWWDEDKYYNPALKSRLTISKDTSKNQVVLTITNMDPVDTATYYCARITTYYYGMDYWGQGTLVTVSS
VL: EIVMTQSPDFQSVTPKEKVTITCRASQSIGNHLHWYQQKPDASPKLLIKYASQSISGVPSRFSGSGSGTDFTLTINSLEAEDAATYFCQQSYQWPLTFGQGTKLEIK
notes: Tested as whole humanized antibody produced in CHO cells and detected with anti-human IgG; the general methods speak of human IgG1/Kappa; also called clone 16-B-07
B2: humanized antibody 16-B-03 (antibody, V domains shown)
VH: QVTLRESGPALVKPTQTLTLTCTFSGFSLSTFALGVGWIRQPPGKALEWLAHIWWDDDKYYNPALKSRLTISKDTSKNQVVLTITNMDPVDTATYYCARITTYYYGMDYWGQGTLVTVSS
VL: EIVMTQSPDFQSVTPKEKVTITCRASQSIGNHLHWYQQKPDASPKLLIKYASQSISGVPSRFSGSGSGTDFTLTINSLEAEDAATYFCQQSYQWPLTFGQGTKLEIK
notes: Tested as whole humanized antibody produced in CHO cells and detected with anti-human IgG; the general methods speak of human IgG1/Kappa; also called clone 16-B-03
B3: humanized antibody 16-B-05 (antibody, V domains shown)
VH: QVTLRESGPALVKPTQTLTLTCTFSGFSLSTFALGVGWIRQPPGKALEWLAHIWWDEDKYYNPALKSRLTISKDTSKNQVVLTITNMDPVDTATYYCARITTYYYGMDYWGQGTLVTVSS
VL: EIVMTQSPDFQSVTPKEKVTITCRASQSIGNHLHWYQQKPDASPKLLIKYASQSISGVPSRFSGSGSGTDFTLTINSLEAEDAATYFCQQSYNWPLTFGQGTKLEIK
notes: Tested as whole humanized antibody produced in CHO cells and detected with anti-human IgG; the general methods speak of human IgG1/Kappa; The printed LCVD reads SRESGSG where the printed cDNA encodes SRFSGSG; also called clone 16-B-05
B4: humanized antibody 42-B-04 (antibody, V domains shown)
VH: QVTLRESGPALVKPTQTLTLTCTFSGFSLSTFGRGVGWIRQPPGKALEWLAHIWWDDEKYYNSALKSRLTISKDTSKNQVVLTITNMDPVDTATYYCARIQNYGSNYWYFDVWGQGTLVTVSS
VL: AIQLTQSPSSLSASVGDRVTITCRASSRISYMFWYQQKPGKAPKVLIYDTSNLASGVPSRFSGSGSGTDYTLTISSLQPEDFATYYCQQWNAYPLTFGQGTKLEIK
notes: Tested as whole humanized antibody produced in CHO cells and detected with anti-human IgG; the general methods speak of human IgG1/Kappa; also called clone 42-B-04
B5: humanized antibody 42-B-02 (antibody, V domains shown)
VH: QVTLRESGPALVKPTQTLTLTCTFSGFSLSTFGRGVGWIRQPPGKALEWLAHIWWDDEKYYNSALKSRLTISKDTSKNQVVLTITNMDPVDTATYYCARIQNYGSNYWYFDVWGQGTLVTVSS
VL: AIQLTQSPSSLSASVGDRVTITCRASSRISYMFWYQQKPGKAPKVLIYDTSNLASGVPSRFSGSGSGTDYTLTISSLQPEDFATYYCQQWNSYPLTFGQGTKLEIK
notes: Tested as whole humanized antibody from transient expression of heavy chain/kappa light chain pairs in CHO cells, detected with anti-human IgG; the general methods speak of human IgG1/Kappa; also called clone 42-B-02
B6: humanized antibody 23-B-04 (antibody, V domains shown)
VH: QVTLRESGPALVKPTQTLTLTCTFSGFSLSTFGMGVGWIRQPPGKALEWLAHIWWDDEKYYNSALKSRLTISKDTSKNQVVLTITNMDPVDTATYYCARISNYGSNYWYFNVWGQGTLVTVSS
VL: AIQLTQSPSSLSASVGDRVTITCRASSSVSYMYWYQQKPGKAPKVLIYDTSNLASGVPSRFSGSGSGTDYTLTISSLQPEDFATYYCQQWNAYPLTFGQGTKLEIK
notes: Tested as whole humanized antibody produced in CHO cells and detected with anti-human IgG; the general methods speak of human IgG1/Kappa; also called clone 23-B-04

The target of this assay is T1, dog iRhom1 full length wild type, …. The experiment in a line: FACS on MEF-DKO-Dog-iR1-FL-WT-T7 cells. Here is the method:
In brief, immortalized MEF-DKO-EV control cells, MEF-DKO-rhesus-iR2-FL-WT-T7 cells, MEF-DKO-cyno-iR2-FL-WT-T7 cells, MEF-DKO-dog-iR2-FL-WT-T7 cells and MEF-DKO-rabbit-iR2-FL-WT-T7 cells, as well as their respective iRhom1 counterparts, were harvested with 10 mM EDTA in PBS, washed and resuspended in FACS buffer (PBS, 3% FBS, 0.05% sodium azide), and seeded in Nunc U-bottom 96-well plates (Thermo Fisher Scientific, USA) at approximately 3×10⁵ cells per well. To pellet cells and remove supernatants, the plates were centrifuged at 1,500 rpm and 4° C. for 3 minutes. For primary staining, cells were resuspended in 100 μl per well of either FACS buffer alone (controls), mouse monoclonal anti-T7 IgG (Merck Millipore, USA) at 3 μg/ml FACS buffer or the antibodies of the invention also at 3 μg/ml FACS buffer and incubated on ice for 1 hour. Afterwards, plates were centrifuged at 1,500 rpm and 4° C. for 3 minutes and washed twice with 200 μl per well of FACS buffer. For secondary staining of previous anti T7 staining, cells were spun down and resuspended in 100 μl per well of PE-conjugated goat anti-mouse IgG F(ab′)2 detection fragment (Dianova, Germany) diluted 1:100 in FACS buffer. For secondary staining of previous staining with humanized antibodies of invention, cells were spun down and resuspended in 100 μl per well of PE-conjugated goat anti-human IgG F(ab′)2 detection fragment (Dianova, Germany) diluted 1:100 in FACS buffer. Protected from light, the cell suspensions were incubated on ice for 1 hour. Plates were then centrifuged at 1,500 rpm and 4° C. for 3 minutes and washed three times with 200 μl per well of FACS buffer. Finally, cells were resuspended in 150 μl per well of FACS buffer and analyzed using a BD Accuri™ C6 Plus flow cytometer (Becton Dickinson, Germany).
For B1, the binding result is on record as “no binding (tested: 3 µg/ml)”.

For B2, the binding result is “no binding (tested: 3 µg/ml)”.

Regarding B3, the binding result is reported as “no binding (tested: 3 µg/ml)”.

Take B4: the binding result is given as “no binding (tested: 3 µg/ml)”.

For the molecule B5, the binding result is “no binding (tested: 3 µg/ml)”.

Take B6: the binding result is “no binding (tested: 3 µg/ml)”.
